Molecular target: the molecule itself
Experiment: SEC; HiLoad 16/600 Superdex 75, 20 mM HEPES pH 7.5, 100 mM NaCl with or without 1 mM EDTA, 277 K; elution volume compared with molecular weight

Protein | stoichiometry N
PmUreE-ΔC17 (domain or fragment, UreE of Proteus mirabilis ATCC 12453 with a stop codon inserted after Gly144 (lacks the last 17 residues, the histidine-rich C-terminus); Made from the full-length construct of m1 by a stop codon after Gly144; also called PmUreE-ΔC17 truncation mutant; C-terminally truncated mutant of PmUreE; source: E. coli BL21 (DE3), purified (Ni-NTA, SEC)) MKKFTQIIDQQKALELTSTEKPKLTLCLTMDERTKSRLKVALSDGQEAGLFLPRGTVLKEGDILLSEEGDVVTIEAAKEQVSTVYSDDPLLLARVCYHLGNRHVPLQIEAGWCRYFHDHVLDDMARGLGATVVVGLEKYQPEPG | 2
Proteus mirabilis UreE (natural protein, Cloned from strain ATCC 12453; In the crystal the models end at residue 147 (chain A) and 144 (chain B); the C-terminal tails are not resolved; also called PmUreE; full-length PmUreE) MKKFTQIIDQQKALELTSTEKPKLTLCLTMDERTKSRLKVALSDGQEAGLFLPRGTVLKEGDILLSEEGDVVTIEAAKEQVSTVYSDDPLLLARVCYHLGNRHVPLQIEAGWCRYFHDHVLDDMARGLGATVVVGLEKYQPEPGAYGGSSGGHHHHHDHHH | ~2
